Changes are numbered by the printed parent chain. Names may count otherwise.

Consider 14 molecules from patent publication US20200385463A1 (LANOVA MEDICINES, published 2020).

For assay [1], the target named is Human claudin 18.2 (CLDN18.2), wild-type (human). The assay can be described thus: cell-based or functional assay.
Assay [2] shares this target. The assay can be described thus: cell-based or functional assay. This is another data set of the same source.

B1: 4F11E2 -HC N55Q-LC S32A (antibody, V domains shown)
VH: EVQLVESGGGLVQPGGSLRLSCAASGFTFSTFGMHWVRQAPGKGLEWVSYITSGQSPIYFTDTVKGRFTISRDNAKNSLYLQMNSLRAEDTAVYYCARSSYYGNSMDYWGQGTLVTVSS
VL: DIVMTQSPDSLAVSLGERATINCRSSQSLLNAGNRKNYLTWYQQKPGQPPKLLIYWASTRESGVPDRFSGSGSGTDFTLTISSLQAEDVAVYYCQNAYSYPFTFGGGTKLEIK
Take B1: the “EC50 (pM), ADCC Reporter Bioassay (luciferase, Jurkat effector cells)” value (“EC50 (pM) … (luciferase, Jurkat effector cells)” for short) in assay [1] was 414 pM.

B2: 72C1B6A3-HC WT-LC N31E (antibody, V domains shown)
VH: QVQLVQSGAEVKKPGASVKVSCKASGYTFTTYPIEWVRQAPGQRLEWMGNFHPYNDDTKYNEKFKGRVTITRDTSASTAYMELSSLRSEDTAVYYCARRAYGYPYAMDYWGQGTLVTVSS
VL: B1 VL with R24K, N31E, A32S, R35Q, W56R, T59S, A97D, S99I, F102Y
In the case of B2, the “EC50 (pM) … (luciferase, Jurkat effector cells)” value in assay [1] is 1650 pM.

B3: 4F11E2 (HC N55E/LC S32A) (antibody, V domains shown)
VH: B1 VH with Q55E
VL: B1 VL
As for B3, the “EC50 (pM) … (luciferase, Jurkat effector cells)” value in assay [1] is 148 pM.

B4: 120B7B2-HC G57D&S104A-LC-N96E&N31E (antibody, V domains shown)
VH: QVQLVQSGAEVKKPGASVKVSCKASGYTFTGYIIQWVRQAPGQRLEWMGFINPYNDDTKYNEQFKGRVTITRDTSASTAYMELSSLRSEDTAVYYCARAYFGNAFAYWGQGTLVTVSS
VL: B1 VL with R24K, N31E, A32S, R35Q, N96E, A97G, S99Y, Y100F
As for B4, the “EC50 (pM) … (luciferase, Jurkat effector cells)” value in assay [1] was determined as 493 pM.

B5: 4F11E2 -HC N55Q-LC N31E (antibody, V domains shown)
VH: B1 VH
VL: B1 VL with N31E, A32S
For the molecule B5, in assay [1], the “EC50 (pM) … (luciferase, Jurkat effector cells)” value came to 238 pM.

B6: 72C1B6A3 (HC WT/LC S32A) (antibody, V domains shown)
VH: B2 VH
VL: B1 VL with R24K, R35Q, W56R, T59S, A97D, S99I, F102Y
Consider B6, for which the “EC50 (pM) … (luciferase, Jurkat effector cells)” value in assay [1] was 190 pM.

B7: 120B7B2 (HC G57D S104A/LC S32A G97A) (antibody, V domains shown)
VH: B4 VH
VL: B1 VL with R24K, R35Q, S99Y, Y100F
Take B7: the “EC50 (pM) … (luciferase, Jurkat effector cells)” value in assay [1] was 114 pM.

B8: 78E8G9G6 chimeric antibody (antibody, V domains shown)
VH: QVQLKESGPGLVAPSQSLSITCTVSGFSLISYGVHWVRQPPGKGLEWLGVIWAGGRTNYNSALMSRLSISKDNSKSQVFLKMNSLQTYDTAMYYCARDRYGGNSLDYWGQGTSVTVSS
VL: DIVMTQSPSSLTVTAGEKVTMNCRSIQSLLNSGNQKNYLSWYQQKPGQPPKLLIYWASTRESGVPDRFTGSGSGTDFTLTIRSVLDEDLAVYYCQNSYSYPFTFGSGTKLEMK
Regarding B8, in assay [2], the “EC50 (pM), ADCC Reporter Bioassay (luciferase; Jurkat effector cells with FcγRIIIa V158 and NFAT response element)” value was determined as 15.9 pM.

B9: 4F11E2 chimeric antibody (antibody, V domains shown)
VH: DVQLVESGGGLVQPGGSRKLSCAASGFTFSTFGMHWVRQAPEKGLEWVAYITSGNSPIYFTDTVKGRFTISRDNPKNTLFLQMTSLGSEDTAVYYCARSSYYGNSMDYWGQGTSVTVSS
VL: DIVMTQSPSSLTVTAGEKVTLTCRSSQSLLNSGNRKNYLTWYQQIPGQPPKLLIYWASTRESGVPDRFTGSGSGTYFTLTISSVQAEDLAVYYCQNAYSYPFTFGSGTKLEKK
On to B9, for which the “EC50 (pM), ADCC Reporter Bioassay (luciferase; Jurkat effector cells with FcγRIIIa V158 and NFAT response element)” value in assay [2] was 22.2 pM.

B10: 103F6D3 chimeric antibody (antibody, V domains shown)
VH: QVQLQQSGAELARPGASVKMSCKASGYTFPTYSIHWLKQGPGQGLEWIGYINPNTIYTNYNQKFKYKTTLTADKSSSTAYIQLSSLTSDDSAVYYCAREGYGRGNAMDYWGQGTSVTVSS
VL: B9 VL with L11Q, T22S, S32G, R35Q, I45K, L79F, S99F, S106A, K112L
Regarding B10, the “EC50 (pM), ADCC Reporter Bioassay (luciferase; Jurkat effector cells with FcγRIIIa V158 and NFAT response element)” value in assay [2] came out at 79.5 pM.

B11: 120B7B2 chimeric antibody (antibody, V domains shown)
VH: EVQLQQSGPELVKPGASVKMSCKASGYTFTGYIIQWMKQKPGLGLEWIGFINPYNDGTKYNEQFKGKATLTSDKSSNAAYMELSSLTSEDSAVYYCARAYFGNSFAYWGQGTLVTVSA
VL: DIVMTQSPSSLTVTAGEKVTMSCKSSQSLLNSGNQKNYLTWYQQRPGQPPKLLMYWASTRESGVPDRFTGSGSGTDFTLTISSGQAEDLAIYFCQNGYYFPFTFGSGTKLETK
With B11, the “EC50 (pM), ADCC Reporter Bioassay (luciferase; Jurkat effector cells with FcγRIIIa V158 and NFAT response element)” value in assay [2] worked out at 5.81 pM.

B12: 72C1B6A3 chimeric antibody (antibody, V domains shown)
VH: QVQLQQSGGELVKPGASVKMSCKAFGYTFTTYPIEWMKQNHGKSLEWIGNFHPYNDDTKYNEKFKGKAKLTVEKSSSTVYLEVSRLTSDDSAVYYCARRAYGYPYAMDYWGQGTSVTVSS
VL: DIVMTQSPSSLTVTAGEKVTMSCKSSQSLLNSGNQKNYLTWYQQRPGQPPKLLIYRASSRESGVPVRFTGSGSGTDFTLTISSVQAEDLAVYYCQNDYIYPYTFGGGTKLEMN
With B12, the “EC50 (pM), ADCC Reporter Bioassay (luciferase; Jurkat effector cells with FcγRIIIa V158 and NFAT response element)” value in assay [2] was determined as 46.3 pM.

B13: 64G11B4 chimeric antibody (antibody, V domains shown)
VH: QVQLHQSGTELVRPGTSVKVSCKASGYAFTNYLLEWVKQRPGQGLEWIGEINPGNGGSNYNEKFKGKATLTADKSSSTAYMQLSSLTSVDSAVYFCARIYYGNSFAYWGQGTLVTVSA
VL: DIVMTQSPSSLTVTAGEKVTMNCKSSQSLLNSGNQRNYLTWYQQKPGQPPKLLIYWASTRESGVPDRFTGSGSGTDFTLTISSVQADDLAVYYCQNDYFYPFTFGAGTNLELK
With B13, in assay [2], the “EC50 (pM), ADCC Reporter Bioassay (luciferase; Jurkat effector cells with FcγRIIIa V158 and NFAT response element)” value was 126 pM.

B14: 12F1F4 chimeric antibody (antibody, V domains shown)
VH: QVQLKESGPGLVAPSQSLSITCTVSGFSLINYGVSWVRQPPGKGLEWLGVIWGDGNTNYQSALRSRLSIRKDTSKSQVFLKLNSVHTDGTATYYCAKVGRGNAMDHWGQGISVIVSS
VL: DIVMTQSPSSLTVTARERVSMTCKSSQSLFNSGNQRNYLTWYQQKPGQPPKLLIYWSSTRESGVPDRFTGSGSGTDFTLTISSVQAEDLAIYFCQNNYYYPFTFGSGTKLEIK
As to B14, in assay [2], the “EC50 (pM), ADCC Reporter Bioassay (luciferase; Jurkat effector cells with FcγRIIIa V158 and NFAT response element)” value amounted to 36.8 pM.
